Legend:
[1] = PCS hydrolysis assay (1-gram ground-sieved, unwashed PCS), cellulose conversion; assay type: biochemical; details: supplemented; 50 and 55° C., pH 5.0
Procedure: Corn stover was pretreated at the U.S. Department of Energy National Renewable Energy Laboratory (NREL) using dilute sulfuric acid. The conditions used for the pretreatment were 0.048 g sulfuric acid/g dry biomass at 190° C. and 25% w/w dry solids for around 1 minute. The water-insoluble solids in the pretreated corn stover (PCS) contained 52% cellulose, 3.6% hemicellulose and 29.8% lignin. Cellulose and hemicellulose were determined by a two-stage sulfuric acid hydrolysis with subsequent analysis of sugars by high performance liquid chromatography using NREL Standard Analytical Procedure #002. Lignin was determined gravimetrically after hydrolyzing the cellulose and hemicellulose fractions with sulfuric acid using NREL Standard Analytical Procedure #003. […] The protein concentration was determined using a BCA Reagent Kit (Pierce, Rockford, Ill., USA).
Penicillium oxalicum GH3 beta-glucosidase (1.5 mg/g cellulose) was added to CELLUCLAST® 1.5L (15 mg/g cellulose) for a total loading of 16.5 mg protein/g cellulose. […] After 72 hour incubation at 50 and 55° C., samples were mixed well, centrifuged at 3000 rpm for 5 minutes, and supernatants were filtered using a 0.45 μm MULTISCREEN® 96-well filter plate (Millipore, Bedford, Mass., USA) and filtrates analyzed for sugar content as described below. […]

[2] = Thermostability: residual activity on pNPG after incubation; assay type: physicochemical; details: 1 g/L, pH 5
Procedure: (§1) Specific activity. 4-Nitrophenyl-beta-D-glucopyranoside (pNPG) was dissolved in DMSO to produce a 100 mM stock solution. Right before assay, the 100 mM pNPG stock solution was diluted 100-fold in 50 mM sodium acetate pH 5 with 0.01% TWEEN® 20 to 1 mM pNPG. Enzyme was diluted to a wide range of concentrations in the same buffer. To 20 μl of the enzyme dilutions (a range of concentration), 100 μl of the 1 mM pNPG solution were quickly added. The reaction was incubated at 40° C. for 20 minutes before the reaction was stopped with 50 μl of 1 M sodium carbonate pH 10, and the absorbance at 405 nm was measured for 4-nitrophenolate production. The specific activity of the Penicillium oxalicum GH3 beta-glucosidase on pNPG was determined to be 72.3±1.7 IU/mg, where […] produce 1 μmole of glucose per minute at 40° C., pH 5.
Thermostability. The Penicillium oxalicum GH3 beta-glucosidase was diluted in 50 mM sodium acetate pH 5 with 0.01% TWEEN® 20 to 1 g/L, and then incubated at 50° C. for 3 days, and 60° C. for 3 hours or 24 hours. The same sample was stored at 4° C. to serve as control. After incubation, the residual activity of the samples was measured using pNPG as substrate, following the same assay protocol described above, but using one enzyme loading which yielded less than 5% conversion. The activity of the sample in 4° C. was normalized to 100%, and the activities of samples at other incubation conditions were compared to the 4° C. activity. The thermostability of the Penicillium oxalicum GH3 beta-glucosidase is shown below.

[3] = Specific activity on pNPG; assay type: biochemical; details: 40° C., pH 5, 20 minutes
Procedure: as §1

[4] = pH activity profile on pNPG; assay type: biochemical; details: Britton Robinson buffer, 50° C.
Procedure: as §1
pH profile. The pH activity profile of the Penicillium oxalicum GH3 beta-glucosidase was determined using the same protocol described above, except the beta-glucosidase was incubated at four different pHs (4, 5, 6, and 7) and one enzyme loading was used, which yielded less than 5% conversion. Britton Robinson buffer (100 mM) was used as the buffer system. The 100 mM Britton Robinson buffer was titrated to a various pH values in the range of 4-7 using 5 M sodium hydroxide and then diluted to 40 mM with deionized water. The pNP-glucose was prepared in the same buffer, and the activity was measured at 50° C. The highest activity was normalized to 100%, and activities at the other pH values were compared to the highest activity and expressed in % activity. The pH profile of the Penicillium oxalicum GH3 beta-glucosidase is shown below.

B1: Penicillium oxalicum GH3 beta-glucosidase: Family GH3 beta-glucosidase of Penicillium oxalicum strain IBT5387 (SEQ ID NO: 2), expressed in Aspergillus oryzae and purified (protein, listed as Penicillium oxalicum)
chain: MRSSTTVLAFVSYGSFGIAAAKPIQEHKPELLNSFHGFQIEEPYSPPFYPSPWMNPRAEGWEDAYQKALAFVSQLTLLEKVNLTTGVGWENGPCVGNTGSVPRLGFKGLCLQDSPQGVRFADYASAFTSSQMAAATFDKTVLYERGVAMAQEHKGKGITVQLGPVAGPLGRAPEGGRNWEGFSPDPVLNGIAMAETIKGMQDTGVLACAKHYVGNEQEHFRQAGESAGHGYNIAESISSNIDDRTMHEMYLWPFADAVRAGVASFMCSYNQINNSYGCQNSHTLNKLLKSELGFQGFVMSDWQAQHSGVSSALAGLDMTMPGDTEFDTGLSFWGSNLTIAVLNGTVPEWRIDDMAMRIMAAYFKVGLTIEDQPDVNFNSWTYDTYGYKYFYSKEGYEKVNWHVDVRANHAQQIRETAAKGTVLLKNTNGALPLKRPSFVAVVGEDAGPNPKGPNGCPDRGCDEGTLAMGWGSGSTQFPFLVTPDSAIQAKVLEYGGRYESILDNYDESAISALVSQPDATCIVFGNSDSGEAFITVDGNWGDRNNLTLWQNADAVIRNVSALCSNTIVVLHTVGPVLLTDYYEHPNITAIVWAGLPGEESGNALVDILWGDVNPAGRTPFTWAKSREDYGTDVMYVPNNGEQAPQQSFSEGIFLDYRHFDQAGIDPIYEFGHGLSYTNFSYSDLRIVTKHVRPYRPTTGMTTQAPIIGPLPSPNLTEYQFPATFKYIPAFIYPYLNSTESLRAASKDPHYGSTAFIPPHALDSSPQPLNPAGDPIASGGNSMLYQELYEITAKITNTGNLAGDEVVQLYVNLGGDNPPRQLRGFDRIHLLPGQSKVFRATLTRRDLSNWDVAAQNWRIIRSAKEVYVGRSSRDLPLSARLESW
effect on CELLUCLAST 1.5L in PCS hydrolysis [1]: synergistic effect
Residual activity on pNPG ([2]; incubation 4° C. (control, normalized to 100%)): 100%
Residual activity on pNPG ([2]; incubation 50° C., 72 hours): 100%
Residual activity on pNPG ([2]; incubation 60° C., 3 hours): 100%
Residual activity on pNPG ([2]; incubation 60° C., 24 hours): 100%
Residual activity on pNPG ([2]; incubation 70° C., 24 hours): 76%
specific activity on pNPG [3]: 72.3±1.7 IU/mg
Activity (relative to highest activity) ([4]; pH 4.0): 38%
Activity (relative to highest activity) ([4]; pH 5.0): 99%
Activity (relative to highest activity) ([4]; pH 6.0): 100%
Activity (relative to highest activity) ([4]; pH 7.0): 36%

— US8581042B2, “Polypeptides having beta-glucosidase activity and polynucleotides encoding same” (Novozymes A/S, priority 2010, dated 2013)
